# Measurements taken from publication PMC8406262.
# Experiments:
# [1] = target: BonA, endogenous in A. baumannii ATCC 19606 membranes (Acinetobacter baumannii ATCC 19606 (endogenous)); assay: native gel or EMSA; 5 to 16% blue-native PAGE of 50 μg total membranes solubilized in detergent, Western blot with anti-BonA antiserum
# [2] = target: BonA, full-length soluble recombinant protein (mature, lacking its signal sequence) (Acinetobacter baumannii); assay: AUC; sedimentation velocity, 0.25 to 2 mg/ml, 40,000 rpm, 20°C, 50 mM Tris-200 mM NaCl pH 7.9
# [3] = target: BonA, full-length soluble recombinant protein (mature, lacking its signal sequence) (Acinetobacter baumannii); assay: SEC-MALS; 100 μl at 1 to 5 mg/ml on Superdex 200 10/300 GL, 20 mM Tris-200 mM NaCl pH 7.9
# [4] = target: BonA-C45, 45-aa C-terminally truncated BonA (Acinetobacter baumannii); assay: as above
substance,measurement,setting,value
"BonA, endogenous in A. baumannii ATCC 19606 membranes (natural protein)",stoichiometry N,[1],2
"BonA, full-length soluble recombinant protein (mature, lacking its signal sequence) (natural protein)",stoichiometry N,[2],10
same,stoichiometry N,[3],10
"BonA-C45, 45-aa C-terminally truncated BonA (domain or fragment)",stoichiometry N,[4],10
